From IntAct's records for PubMed 25814554 come the findings set out here.

The chains are these.
B1: Pleckstrin homology domain-containing family S member 1 (Homo sapiens), Q5SXH7-1 (parent)
chain: MAGGKQFTFSYENEVCKQDYFIKSPPSQLFSSVTSWKKRFFILSKAGEKSFSLSYYKDHHHRGSIEIDQNSSVEVGISSQEKMQSVQKMFKCHPDEVMSIRTTNREYFLIGHDREKIKDWVSFMSSFRQDIKATQQNTEEELSLGNKRTLFYSSPLLGPSSTSEAVGSSSPRNGLQDKHLMEQSSPGFRQTHLQDLSEATQDVKEENHYLTPRSVLLELDNIIASSDSGESIETDGPDQVSGRIECHYEPMESYFFKETSHESVDSSKEEPQTLPETQDGDLHLQEQGSGIDWCLSPADVEAQTTNDQKGSASLTVVQLSILINNIPDESQVEKLNVFLSPPDVINYLALTEATGRICVSQWEGPPRLGCIFCHGDHLLAVNDLKPQSLEEVSLFLTRSIQKEKLKLTIGRIPNSETFHAASCMCPSKCQSAAPSQLDKPRLNRAPKRSPAIKKSQQKGARE
B2: Tetraspanin-2 (Homo sapiens), O60636 (parent)
chain: MGRFRGGLRCIKYLLLGFNLLFWLAGSAVIAFGLWFRFGGAIKELSSEDKSPEYFYVGLYVLVGAGALMMAVGFFGCCGAMRESQCVLGSFFTCLLVIFAAEVTTGVFAFIGKGVAIRHVQTMYEEAYNDYLKDRGKGNGTLITFHSTFQCCGKESSEQVQPTCPKELLGHKNCIDEIETIISVKLQLIGIVGIGIAGLTIFGMIFSMVLCCAIRNSRDVI

In one test the parent is B1. The following applies: with p55g_human PIK3R3, Q92569.
For the variant D68F, the “effect of a mutation on the interaction” value is listed as “disrupting interaction”.

Variants of B2 are the subject of the next test. The settings on record: with grb2_human GRB2, P62993.
Sequence of grb2_human GRB2, P62993 (P62993 whole entry, looked up): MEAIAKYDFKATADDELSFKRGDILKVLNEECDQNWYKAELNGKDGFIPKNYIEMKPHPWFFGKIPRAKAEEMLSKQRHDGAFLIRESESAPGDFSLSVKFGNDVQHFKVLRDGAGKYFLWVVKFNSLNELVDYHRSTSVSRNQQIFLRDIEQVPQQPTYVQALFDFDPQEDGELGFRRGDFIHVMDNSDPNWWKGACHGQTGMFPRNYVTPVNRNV
MGRFRGGLRCIKYLLLGFNLLFWLAGSAVIAFGLWFRFGGAIKELSSEDKSPEYFYVGLYVLVGAGALMMAVGFFGCCGAMRESQCVLGSFFTCLLVIFAAEVTTGVFAFIGKGVAIRHVQTMFEEAYNDYLKDRGKGNGTLITFHSTFQCCGKESSEQVQPTCPKELLGHKNCIDEIETIISVKLQLIGIVGIGIAGLTIFGMIFSMVLCCAIRNSRDVI [Y124F]: the “effect of a mutation on the interaction” value is “disrupting interaction”.

In a further test the parent is B2. The settings on record: with p55g_human PIK3R3, Q92569.
Take MGRFRGGLRCIKYLLLGFNLLFWLAGSAVIAFGLWFRFGGAIKELSSEDKSPEYFYVGLYVLVGAGALMMAVGFFGCCGAMRESQCVLGSFFTCLLVIFAAEVTTGVFAFIGKGVAIRHVQTMFEEAYNDYLKDRGKGNGTLITFHSTFQCCGKESSEQVQPTCPKELLGHKNCIDEIETIISVKLQLIGIVGIGIAGLTIFGMIFSMVLCCAIRNSRDVI [Y124F]: the “effect of a mutation on the interaction” value is given as “disrupting interaction”.
